# According to US20230287489:
# T1: human placental RNase inhibitor (NEB, Cat #M0307S), P13489
# T1 chain: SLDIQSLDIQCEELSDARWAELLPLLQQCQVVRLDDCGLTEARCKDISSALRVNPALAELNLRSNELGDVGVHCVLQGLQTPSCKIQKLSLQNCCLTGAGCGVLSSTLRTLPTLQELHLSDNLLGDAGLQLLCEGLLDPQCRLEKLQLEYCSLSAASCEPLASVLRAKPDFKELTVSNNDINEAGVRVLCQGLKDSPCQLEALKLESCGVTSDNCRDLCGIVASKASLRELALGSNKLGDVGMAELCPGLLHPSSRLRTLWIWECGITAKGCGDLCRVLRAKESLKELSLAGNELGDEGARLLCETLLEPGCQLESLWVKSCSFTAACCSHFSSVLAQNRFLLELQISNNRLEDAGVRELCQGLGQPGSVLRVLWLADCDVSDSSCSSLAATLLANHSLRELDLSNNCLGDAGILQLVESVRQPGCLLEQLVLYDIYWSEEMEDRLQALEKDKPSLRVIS
# B1: recombinant wild-type human RNase4 (hRNase 4), periplasmically expressed as an MBP fusion protein (protein)
# chain: QDGMYQRFLRQHVHPEETGGSDRYCNLMMQRRKMTLYHCKRFNTFIHEDIWNIRSICSTTNIQCKNGKMNCHEGVVKVTDCRDTGSSRAPNCRYRAIASTRRVVIACEGNPQVPVHFDG
# Target: T1, human placental RNase inhibitor (NEB, …)
protein,measurement,value
B1,"cleavage of a target RNA oligonucleotide (SEQ ID NO: 23) by hRNase 4, LC-MS/MS",cleavage of the target oligonucleotide was inhibited following preincubation of hRNase 4 with human placental RNase inhibitor
